The target of assay [1] is Rous sarcoma virus integrase (1-286) R244A (Rous sarcoma virus (Prague A)). Kind of assay: SEC.
The target in assay [2] is Rous sarcoma virus integrase (1-286) R244E (Rous sarcoma virus (Prague A)). Kind of assay: SEC.
Assay [3] concerns the target Rous sarcoma virus integrase (1-286) Y246A (Rous sarcoma virus (Prague A)). As to the kind of experiment: SEC.
Assay [4] addresses Rous sarcoma virus integrase, wt IN (1-278) (Rous sarcoma virus (Prague A)). As to the kind of experiment: cryo-EM structure.
In assay [5] the target is Rous sarcoma virus integrase, wt full-length IN (1-286) (Rous sarcoma virus (Prague A)). Kind of assay: SEC.

“Rous sarcoma virus integrase (1-286) R244A (enzyme)” registered a stoichiometry N in assay [1] of 2.

Substance “Rous sarcoma virus integrase (1-286) R244E (enzyme)” displayed a stoichiometry N in assay [2] of 2.

Regarding “Rous sarcoma virus integrase (1-286) Y246A (enzyme)”, the stoichiometry N in assay [3] amounted to 2.

In assay [4], “Rous sarcoma virus integrase, wt IN (1-278) (enzyme)” displayed a stoichiometry N of 8.

The substance “Rous sarcoma virus integrase, wt full-length IN (1-286) (enzyme)” had a stoichiometry N in assay [5] of 2.
